± gives the uncertainty stated by the source.
Test: self-splicing fitness, log relative to wild type (ln ratio); higher = more splicing; Tetrahymena group I intron in knt gene, E. coli kanamycin selection, DiMSum; sequences stand for … in CUCUCU…GGAGGGAAAAGUUAUCAGGCAUGCACCUGGUAGCUAGUCUUUAAACCAAUAGAUUGCAUCGGUUUAAAAGGCAAGACCGUCAAAUUGCGGGAAAGGGGUCAACAGCCGUUCAGUACCAAGUCUCAGGGGAAACUUUGAGAUGGCCUUGCAAAGGGUAUGGUAAUAAGCUGACGGACAUGGUCCUAACCACGCAGCCAAGUCCUAAGUCAACAGAUCUUCUGUUGAUAUGGAUGCAGUUCACAGACUAAAUGUCGGUCGGGGAAGAUGUAUUCUUCUCAUAAGAUAUAGUCGGACCUCUCCUUAAUGGGAGCUAGCGGAUGAAGUGAUGCAACACUGGAGCCGCUGGGAACUAAUUUGUAUGCGAAAGUAUAUUGAUUAGUUUUGGAGUACUCGUGGUCG
How it was run: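 Colonies from six replicate transformations of E. coli BL21(DE3) were pooled and amplicon-sequenced on an Illumina HiSeq 2500. The library placed an intron with all eight P1ex-region nucleotides randomised inside the knt kanamycin-resistance gene on pET-22b(+), and cells grew overnight at 37°C or 30°C on LB agar with or without 25 μg/mL kanamycin (plus 100 μg/mL carbenicillin, 50 μM IPTG, 0.2% rhamnose). Fitness is the DiMSum error-weighted combination of wild-type-normalised replicate fold changes, kanamycin versus none.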

| Sequence | self-splicing fitness (ln) (30 °C) | self-splicing fitness (ln) (37 °C) |
| --- | --- | --- |
| GAUGAGCAAUAUUACGGGAG | -3.76 ± 0.25 | -1.54 ± 0.41 |
| GAUGAGCAAUAUUACGGGGU | -3.36 ± 0.23 | -2.92 ± 0.32 |
| GAUGAGCAAUAUUACGGUAA | -2.21 ± 0.29 | -2.95 ± 0.38 |
| GAUGAGCAAUAUUACGGUGU | -3.67 ± 0.22 | -1.15 ± 0.13 |
| GAUGAGCAAUAUUACGGUUG | -3.87 ± 0.21 | -2.22 ± 0.18 |
| GAUGAGCAAUAUUACGUCAU | -3.15 ± 0.32 | -2.99 ± 0.32 |
| GAUGAGCAAUAUUACGUCCC | -2.06 ± 0.43 | -1.04 ± 0.44 |
| GAUGAGCAAUAUUACGUCGU | -2.4 ± 0.15 | -2.13 ± 0.17 |
| GAUGAGCAAUAUUACGUGCU | -2.91 ± 0.44 | – |
| GAUGAGCAAUAUUACGUGGG | -3.45 ± 0.21 | -3.04 ± 0.27 |
| GAUGAGCAAUAUUACGUUCG | -2.05 ± 0.14 | -0.925 ± 0.18 |
| GAUUAGCAAUAUUACGAACU | -0.696 ± 0.15 | -0.559 ± 0.19 |
| GAUUAGCAAUAUUACGACGC | 0.277 ± 0.14 | 0.361 ± 0.14 |
| GAUUAGCAAUAUUACGAGCA | -1.27 ± 0.17 | 0.106 ± 0.14 |
| GAUUAGCAAUAUUACGAUAA | -0.956 ± 0.12 | 0.0487 ± 0.15 |
| GAUUAGCAAUAUUACGCAGA | -3.16 ± 0.23 | -1.16 ± 0.16 |
| GAUUAGCAAUAUUACGCCCA | -0.748 ± 0.11 | 0.123 ± 0.14 |
| GAUUAGCAAUAUUACGCGUA | -1.01 ± 0.1 | -0.855 ± 0.091 |
| GAUUAGCAAUAUUACGGCGG | -0.96 ± 0.16 | -2.17 ± 0.25 |
| GAUUAGCAAUAUUACGGGAA | -1.67 ± 0.26 | -3.27 ± 0.43 |
| GAUUAGCAAUAUUACGGGGA | -2.86 ± 0.19 | -2.71 ± 0.2 |
| GAUUAGCAAUAUUACGGGUC | – | -2.78 ± 0.34 |
| GAUUAGCAAUAUUACGUACU | -0.632 ± 0.073 | 0.0191 ± 0.088 |
| GAUUAGCAAUAUUACGUAGC | -1.74 ± 0.14 | -1.33 ± 0.18 |
| GAUUAGCAAUAUUACGUGGA | -3.92 ± 0.3 | -0.488 ± 0.13 |

| Sequence | self-splicing fitness (ln) (30 °C) | self-splicing fitness (ln) (37 °C) |
| --- | --- | --- |
| GAUUAGCAAUAUUACGUGGC | -3.36 ± 0.25 | -2.3 ± 0.21 |
| GAUUAGCAAUAUUACGUUAU | -3.04 ± 0.21 | -2.51 ± 0.18 |
| GAUUAGCAAUAUUACGUUUC | -3.69 ± 0.28 | -1.89 ± 0.18 |
| GCAAAGCAAUAUUACGAAGG | -2 ± 0.14 | -0.499 ± 0.17 |
| GCAAAGCAAUAUUACGACCG | -0.859 ± 0.14 | -1.26 ± 0.25 |
| GCAAAGCAAUAUUACGACUA | -0.955 ± 0.05 | -0.475 ± 0.055 |
| GCAAAGCAAUAUUACGAGAU | -3.64 ± 0.16 | -2.19 ± 0.12 |
| GCAAAGCAAUAUUACGAGGU | -3.56 ± 0.25 | -3.24 ± 0.33 |
| GCAAAGCAAUAUUACGAGUA | -2.1 ± 0.087 | -1.15 ± 0.086 |
| GCAAAGCAAUAUUACGAUUC | -1.26 ± 0.082 | -0.245 ± 0.1 |
| GCAAAGCAAUAUUACGCAGC | -0.0889 ± 0.15 | -2.46 ± 0.39 |
| GCAAAGCAAUAUUACGCAUG | -3.61 ± 0.22 | -2.97 ± 0.27 |
| GCAAAGCAAUAUUACGCGAA | -1.55 ± 0.14 | -0.599 ± 0.17 |
| GCAAAGCAAUAUUACGCGAC | -3.4 ± 0.13 | -1.54 ± 0.16 |
| GCAAAGCAAUAUUACGGAUA | -2.49 ± 0.13 | -1.6 ± 0.1 |
| GCAAAGCAAUAUUACGGGAG | -2.71 ± 0.11 | -2.08 ± 0.13 |
| GCAAAGCAAUAUUACGGUAU | -1.32 ± 0.072 | -0.489 ± 0.096 |
| GCAAAGCAAUAUUACGGUCC | -1.75 ± 0.14 | -0.8 ± 0.15 |
| GCAAAGCAAUAUUACGUAAC | -1.67 ± 0.12 | -0.338 ± 0.15 |
| GCAAAGCAAUAUUACGUAGU | -2.09 ± 0.11 | -1.14 ± 0.15 |
| GCAAAGCAAUAUUACGUCCC | -0.828 ± 0.14 | -0.697 ± 0.098 |
| GCAAAGCAAUAUUACGUCCG | -1.98 ± 0.25 | -1.74 ± 0.31 |
| GCAAAGCAAUAUUACGUCUU | -1.14 ± 0.074 | -1.11 ± 0.075 |
| GCAAAGCAAUAUUACGUGCA | -1.62 ± 0.099 | -0.826 ± 0.1 |
| GCAAAGCAAUAUUACGUGUC | -4.47 ± 0.18 | -1.84 ± 0.12 |

| Sequence | self-splicing fitness (ln) (30 °C) | self-splicing fitness (ln) (37 °C) |
| --- | --- | --- |
| GCAAAGCAAUAUUACGUUGC | -3.51 ± 0.21 | -1.88 ± 0.21 |
| GCACAGCAAUAUUACGAAAG | -3.79 ± 0.15 | -1.91 ± 0.11 |
| GCACAGCAAUAUUACGACUA | -1.17 ± 0.11 | -0.702 ± 0.085 |
| GCACAGCAAUAUUACGACUG | -1.14 ± 0.094 | -0.12 ± 0.093 |
| GCACAGCAAUAUUACGAGCG | -1.16 ± 0.066 | -0.171 ± 0.077 |
| GCACAGCAAUAUUACGAUGC | -3.17 ± 0.2 | -1.88 ± 0.17 |
| GCACAGCAAUAUUACGAUUC | -0.739 ± 0.11 | 1.44 ± 0.15 |
| GCACAGCAAUAUUACGCAUU | -0.442 ± 0.064 | 0.276 ± 0.078 |
| GCACAGCAAUAUUACGCGAU | -2.12 ± 0.16 | -1.55 ± 0.15 |
| GCACAGCAAUAUUACGCGCC | -2.56 ± 0.38 | – |
| GCACAGCAAUAUUACGCGGC | -4.04 ± 0.43 | -1.84 ± 0.26 |
| GCACAGCAAUAUUACGCGGG | -2.13 ± 0.069 | -1.39 ± 0.081 |
| GCACAGCAAUAUUACGCGUU | -1.29 ± 0.053 | -0.545 ± 0.057 |
| GCACAGCAAUAUUACGCUAG | -1.9 ± 0.082 | -1.18 ± 0.078 |
| GCACAGCAAUAUUACGCUCC | -1.27 ± 0.16 | 0.155 ± 0.17 |
| GCACAGCAAUAUUACGGAAU | -1.08 ± 0.076 | -0.95 ± 0.095 |
| GCACAGCAAUAUUACGGACA | -1.02 ± 0.1 | -0.584 ± 0.11 |
| GCACAGCAAUAUUACGGAGA | -2.85 ± 0.12 | -2.16 ± 0.13 |
| GCACAGCAAUAUUACGGCGC | -1.54 ± 0.1 | -0.777 ± 0.12 |
| GCACAGCAAUAUUACGGUAC | -1.17 ± 0.096 | -0.285 ± 0.1 |
| GCACAGCAAUAUUACGGUCC | -0.798 ± 0.062 | 0.0593 ± 0.082 |
| GCACAGCAAUAUUACGGUGC | -3.09 ± 0.2 | -2.61 ± 0.23 |
| GCACAGCAAUAUUACGUAUU | -1 ± 0.047 | -0.335 ± 0.057 |
| GCACAGCAAUAUUACGUCCA | -0.954 ± 0.12 | -0.96 ± 0.11 |
| GCACAGCAAUAUUACGUCUA | -0.8 ± 0.06 | -0.367 ± 0.063 |

| Sequence | self-splicing fitness (ln) (30 °C) | self-splicing fitness (ln) (37 °C) |
| --- | --- | --- |
| GCACAGCAAUAUUACGUCUG | -2.53 ± 0.1 | -1.27 ± 0.11 |
| GCACAGCAAUAUUACGUUCU | -0.579 ± 0.054 | -0.524 ± 0.068 |
| GCACAGCAAUAUUACGUUUG | -1.62 ± 0.066 | -1.08 ± 0.089 |
| GCAGAGCAAUAUUACGACCU | – | -1.59 ± 0.42 |
| GCAGAGCAAUAUUACGCACG | -4.51 ± 0.42 | -2.05 ± 0.23 |
| GCAGAGCAAUAUUACGCAGC | -2.42 ± 0.47 | – |
| GCAGAGCAAUAUUACGCAUU | -3.11 ± 0.16 | -2.3 ± 0.2 |
| GCAGAGCAAUAUUACGCCGG | -2.85 ± 0.45 | -0.641 ± 0.35 |
| GCAGAGCAAUAUUACGCUGC | -3.42 ± 0.48 | -1.76 ± 0.33 |
| GCAGAGCAAUAUUACGGAAA | – | -2.15 ± 0.43 |
| GCAGAGCAAUAUUACGGAGC | -2.89 ± 0.28 | -2.84 ± 0.28 |
| GCAGAGCAAUAUUACGGCAG | -2.87 ± 0.23 | -1.18 ± 0.25 |
| GCAGAGCAAUAUUACGGCUG | -2.42 ± 0.25 | – |
| GCAGAGCAAUAUUACGGGUG | -2.91 ± 0.22 | -1.82 ± 0.16 |
| GCAGAGCAAUAUUACGGUAA | -3.52 ± 0.27 | -2.36 ± 0.21 |
| GCAGAGCAAUAUUACGGUAG | -1.82 ± 0.27 | -0.285 ± 0.44 |
| GCAGAGCAAUAUUACGUCCG | -2.57 ± 0.14 | -2.51 ± 0.17 |
| GCAGAGCAAUAUUACGUCUU | -0.897 ± 0.12 | -2.22 ± 0.21 |
| GCAGAGCAAUAUUACGUUCA | -2.06 ± 0.13 | -0.713 ± 0.1 |
| GCAGAGCAAUAUUACGUUGC | – | -1.06 ± 0.43 |
| GCAGAGCAAUAUUACGUUUU | -3.54 ± 0.17 | -3.12 ± 0.2 |
| GCAUAGCAAUAUUACGACCA | -0.207 ± 0.11 | -0.544 ± 0.14 |

From the supplement of paper PMC7877785
